Reference: patent publication US20240254458A1

Molecular target: LexA408-DBD-iLight V464L-msfGFP (E. coli; Idiomarina sp.)
Test: cell-based or functional assay

inhibition efficiency of the gene expression (mCherry reporter, E. coli, 660 nm): 1.6 fold
Substance: LexA408-DBD-iLight V464L-msfGFP
